Measurements taken from the supplement of paper PMC6379048.

Assays:
Assay in all cases: EC50 of free RNA motif oligo competing protein binding to immobilised probe
[1] = biological target: T1, CDKN2AIP (UniProt Q9NXV6)
T1 sequence: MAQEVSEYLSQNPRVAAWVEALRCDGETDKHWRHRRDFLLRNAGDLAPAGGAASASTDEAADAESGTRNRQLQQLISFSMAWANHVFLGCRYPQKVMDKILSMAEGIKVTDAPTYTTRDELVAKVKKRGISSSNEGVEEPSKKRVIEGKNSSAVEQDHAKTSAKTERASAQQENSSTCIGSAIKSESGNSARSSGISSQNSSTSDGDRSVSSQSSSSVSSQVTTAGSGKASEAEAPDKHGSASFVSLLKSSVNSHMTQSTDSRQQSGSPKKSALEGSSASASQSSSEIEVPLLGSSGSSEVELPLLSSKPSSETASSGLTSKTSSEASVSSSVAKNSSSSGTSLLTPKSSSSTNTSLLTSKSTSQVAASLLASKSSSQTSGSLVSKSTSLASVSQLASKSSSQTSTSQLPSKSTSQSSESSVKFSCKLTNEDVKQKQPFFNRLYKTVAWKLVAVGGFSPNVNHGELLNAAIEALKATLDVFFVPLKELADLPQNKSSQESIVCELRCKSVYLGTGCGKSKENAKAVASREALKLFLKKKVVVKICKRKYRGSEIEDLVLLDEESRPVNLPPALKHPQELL
Outline: (§1)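 Free RNA oligos (0 nM to 30 μM) competed for 1 h at 4°C in HEK293-FT lysate (2.5 mg protein/well) before a 30 min, 4°C pulldown with the same oligos on NHS-Sepharose beads. Bound proteins were quantified by label-free LC-MS/MS and normalised to the control. Kd was found by multiplying EC50, from a four-parameter log-logistic fit, by a protein-dependent depletion factor.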

[2] = biological target: PTCD3 (UniProt Q96EY7)
Outline: as §1

[3] = biological target: T2, PRPF3 (UniProt O43395)
T2 sequence: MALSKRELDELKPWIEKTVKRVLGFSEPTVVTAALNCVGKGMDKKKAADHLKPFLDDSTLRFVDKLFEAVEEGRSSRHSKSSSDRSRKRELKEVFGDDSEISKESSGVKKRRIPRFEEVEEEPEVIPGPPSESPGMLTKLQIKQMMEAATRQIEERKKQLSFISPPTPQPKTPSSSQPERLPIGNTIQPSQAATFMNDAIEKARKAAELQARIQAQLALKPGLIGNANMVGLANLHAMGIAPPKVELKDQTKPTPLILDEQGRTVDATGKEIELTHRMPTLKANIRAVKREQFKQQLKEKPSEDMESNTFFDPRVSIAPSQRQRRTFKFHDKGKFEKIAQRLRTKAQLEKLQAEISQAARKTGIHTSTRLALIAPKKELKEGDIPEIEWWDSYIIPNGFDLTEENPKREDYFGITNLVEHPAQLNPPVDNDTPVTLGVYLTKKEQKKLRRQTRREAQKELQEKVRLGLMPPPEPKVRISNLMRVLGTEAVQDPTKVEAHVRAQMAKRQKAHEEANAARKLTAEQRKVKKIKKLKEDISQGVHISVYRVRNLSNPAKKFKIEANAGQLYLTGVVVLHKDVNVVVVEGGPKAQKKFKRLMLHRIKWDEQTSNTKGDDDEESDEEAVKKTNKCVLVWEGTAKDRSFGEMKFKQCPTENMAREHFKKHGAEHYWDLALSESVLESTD
Outline: as §1

[4] = biological target: P4HA1 (UniProt P13674)
P4HA1, sequence (P13674 whole entry): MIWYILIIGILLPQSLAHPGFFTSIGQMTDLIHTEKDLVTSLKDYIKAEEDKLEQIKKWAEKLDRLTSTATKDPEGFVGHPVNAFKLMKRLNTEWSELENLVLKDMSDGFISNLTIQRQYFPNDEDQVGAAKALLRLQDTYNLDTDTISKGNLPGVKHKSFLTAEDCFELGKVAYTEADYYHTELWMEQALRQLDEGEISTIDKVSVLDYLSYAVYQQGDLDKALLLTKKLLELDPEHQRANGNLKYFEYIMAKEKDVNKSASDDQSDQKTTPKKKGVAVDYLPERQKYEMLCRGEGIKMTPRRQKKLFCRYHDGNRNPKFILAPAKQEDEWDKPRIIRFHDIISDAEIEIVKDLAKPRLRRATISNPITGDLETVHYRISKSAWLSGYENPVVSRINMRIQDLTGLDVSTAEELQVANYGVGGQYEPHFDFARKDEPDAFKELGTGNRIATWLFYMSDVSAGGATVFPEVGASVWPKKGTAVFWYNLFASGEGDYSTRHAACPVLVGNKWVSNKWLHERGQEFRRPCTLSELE
Outline: as §1

[5] = biological target: SF3B6 (UniProt Q9Y3B4)
SF3B6, sequence (Q9Y3B4 whole entry): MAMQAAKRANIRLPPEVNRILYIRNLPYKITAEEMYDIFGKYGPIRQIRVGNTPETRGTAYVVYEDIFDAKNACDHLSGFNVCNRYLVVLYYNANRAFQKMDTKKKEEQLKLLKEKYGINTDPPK
Outline: as §1

[6] = biological target: HSP90AB2P (UniProt Q58FF8)
HSP90AB2P, sequence (Q58FF8 whole entry): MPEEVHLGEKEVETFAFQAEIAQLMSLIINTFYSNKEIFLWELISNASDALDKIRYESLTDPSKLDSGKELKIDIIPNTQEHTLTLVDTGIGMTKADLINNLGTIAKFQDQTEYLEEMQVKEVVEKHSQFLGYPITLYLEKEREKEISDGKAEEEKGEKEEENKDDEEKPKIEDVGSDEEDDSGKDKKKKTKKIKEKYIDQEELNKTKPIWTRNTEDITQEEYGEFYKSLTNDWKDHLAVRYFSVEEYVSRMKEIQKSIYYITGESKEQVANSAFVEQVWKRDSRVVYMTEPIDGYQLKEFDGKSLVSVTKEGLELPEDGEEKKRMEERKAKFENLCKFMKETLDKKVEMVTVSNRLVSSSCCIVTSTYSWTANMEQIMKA
Outline: as §1

[7] = biological target: MRPL19 (UniProt P49406)
Outline: as §1

[8] = biological target: T3, ANGEL2 (UniProt Q5VTE6)
T3 sequence: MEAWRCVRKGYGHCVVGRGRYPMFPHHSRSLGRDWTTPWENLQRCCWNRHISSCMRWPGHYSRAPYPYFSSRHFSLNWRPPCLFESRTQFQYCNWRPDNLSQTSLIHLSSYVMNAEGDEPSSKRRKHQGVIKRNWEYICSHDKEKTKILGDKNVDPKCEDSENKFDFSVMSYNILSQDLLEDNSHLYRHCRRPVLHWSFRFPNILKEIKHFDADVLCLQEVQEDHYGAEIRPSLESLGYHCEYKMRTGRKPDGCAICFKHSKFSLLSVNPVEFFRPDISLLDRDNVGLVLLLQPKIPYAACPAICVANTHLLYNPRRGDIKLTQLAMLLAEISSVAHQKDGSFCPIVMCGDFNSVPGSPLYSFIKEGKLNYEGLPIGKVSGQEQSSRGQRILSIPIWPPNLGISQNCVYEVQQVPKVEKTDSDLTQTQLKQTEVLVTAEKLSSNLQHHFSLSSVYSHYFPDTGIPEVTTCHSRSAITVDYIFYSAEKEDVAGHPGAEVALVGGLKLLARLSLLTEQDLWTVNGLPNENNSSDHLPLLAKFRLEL
Outline: as §1

[9] = biological target: MRPL1 (UniProt Q9BYD6)
Outline: as §1

[10] = biological target: GNB2L1 (UniProt P63244)
Outline: as §1

[11] = biological target: RPS10 (UniProt P46783)
Outline: as §1

Sequence: UAUUUAU
- EC50 [1]: 419 nM
- EC50 [2]: 50 nM
- EC50 [3]: 7130 nM

Sequence: AAUAAA
- EC50 [4]: 65.6 nM
- EC50 [5]: 4620 nM
- EC50 [6]: 129 nM

Sequence: CUGUCCU
- EC50 [7]: 136 nM
- EC50 [8]: 504 nM
- EC50 [9]: 259 nM
- EC50 [10]: 2980 nM
- EC50 [11]: 226 nM
